Test results published in paper PMC9844003.

Key:
[1] = target: extracellular domain of CD47 fused to a His(×6)-Avi-tag; assay: ELISA; details: chain shown with the change, read off a plot
[2] = target: extracellular domain of CD47 fused to a His(×6)-Avi-tag (human); assay: ELISA; CD47-ECD coated on plates; serially diluted IgGs, detected with anti-human IgG Fc-HRP; pH 6.8 (of a series from pH 6.2 to 7.6)
[3] = target: extracellular domain of CD47 fused to a His(×6)-Avi-tag (human); assay: ELISA; CD47-ECD coated on plates; serially diluted IgGs, detected with anti-human IgG Fc-HRP; pH 7.6 (of a series from pH 6.2 to 7.6)

Chain of extracellular domain of CD47 fused to a His(×6)-Avi-tag (chain, as listed by the source): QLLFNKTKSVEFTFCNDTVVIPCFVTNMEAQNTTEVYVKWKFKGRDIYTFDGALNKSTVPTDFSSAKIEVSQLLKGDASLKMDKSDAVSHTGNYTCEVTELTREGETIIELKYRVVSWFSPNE

| Binder | EC50 ([1]; pH 6.8, parent: est. -1.3) | EC50 ([1]; pH 7.4, parent: est. -0.1) | EC50 [2] [nM] | EC50 [3] [nM] | response ([1]; pH 6.8, highest antibody concentration, Log[Ab] (nM) about 3.5) [OD450] |
| --- | --- | --- | --- | --- | --- |
| BC31M4 (hIgG1 form) (antibody, V domains shown) VH: QVQLVQSGAEVKKPGASVKVSCKASGYTFTSYGISWVRQAPGQGLEWMGWISAYNGNTNYAQKLQGRVTMTTDTSTSTAYMELRSLRSDDTAVYYCARGAVYFDYWGQGTLVTVSS VL: EIVLTQSPATLSLSPGERATLSCRASQSLSRNHLAWYQQKPGQPPRLLIHWASTRESGVPDRFSGSGSGTDFTLTISSLQAEDVAVYYCQQHTQNTWTFGQGTKVEIK |  |  | 0.03 | 2.12 |  |
| BC31M4 (hIgG1 form) L:H38R; L:H55R (protein) chain 1: QVQLVQSGAEVKKPGASVKVSCKASGYTFTSYGISWVRQAPGQGLEWMGWISAYNGNTNYAQKLQGRVTMTTDTSTSTAYMELRSLRSDDTAVYYCARGAVYFDYWGQGTLVTVSS chain 2: EIVLTQSPATLSLSPGERATLSCRASQSLSRNRLAWYQQKPGQPPRLLIRWASTRESGVPDRFSGSGSGTDFTLTISSLQAEDVAVYYCQQHTQNTWTFGQGTKVEIK | -0.9 log10(nM) | -0.1 log10(nM) |  |  |  |
| BC31M4 (hIgG1 form) L:H38R; L:H55R; L:H107R (protein) chain 1: QVQLVQSGAEVKKPGASVKVSCKASGYTFTSYGISWVRQAPGQGLEWMGWISAYNGNTNYAQKLQGRVTMTTDTSTSTAYMELRSLRSDDTAVYYCARGAVYFDYWGQGTLVTVSS chain 2: EIVLTQSPATLSLSPGERATLSCRASQSLSRNRLAWYQQKPGQPPRLLIRWASTRESGVPDRFSGSGSGTDFTLTISSLQAEDVAVYYCQQRTQNTWTFGQGTKVEIK |  |  |  |  | 2 |

The remaining lines, values ahead:

| EC50 ([1]; pH 6.8, parent: est. -1.3) | EC50 ([1]; pH 7.4, parent: est. -0.1) | EC50 [2] [nM] | EC50 [3] [nM] | response ([1]; pH 6.8, highest antibody concentration, Log[Ab] (nM) about 3.5) [OD450] | Binder |
| --- | --- | --- | --- | --- | --- |
| 1.4 log10(nM) | 1.9 log10(nM) |  |  |  | BC31M4 (hIgG1 form) L:H38R; L:H107R (protein) chain 1: QVQLVQSGAEVKKPGASVKVSCKASGYTFTSYGISWVRQAPGQGLEWMGWISAYNGNTNYAQKLQGRVTMTTDTSTSTAYMELRSLRSDDTAVYYCARGAVYFDYWGQGTLVTVSS chain 2: EIVLTQSPATLSLSPGERATLSCRASQSLSRNRLAWYQQKPGQPPRLLIHWASTRESGVPDRFSGSGSGTDFTLTISSLQAEDVAVYYCQQRTQNTWTFGQGTKVEIK |
| 0.4 log10(nM) | 1.3 log10(nM) |  |  |  | BC31M4 (hIgG1 form) L:H55R; L:H107R (protein) chain 1: QVQLVQSGAEVKKPGASVKVSCKASGYTFTSYGISWVRQAPGQGLEWMGWISAYNGNTNYAQKLQGRVTMTTDTSTSTAYMELRSLRSDDTAVYYCARGAVYFDYWGQGTLVTVSS chain 2: EIVLTQSPATLSLSPGERATLSCRASQSLSRNHLAWYQQKPGQPPRLLIRWASTRESGVPDRFSGSGSGTDFTLTISSLQAEDVAVYYCQQRTQNTWTFGQGTKVEIK |
